The values that follow are results of earlier work, collected in article PMC10451079.

For series [1], the target named is NGALR (Mus musculus) (UniProt Q9D9E0). Kind of series: ligand-cell binding, Scatchard.
For series [2], the target named is MC3R (UniProt P41968).
Series [3] has as its target MC1R (UniProt Q01726).
Series [4] deals with MC4R (UniProt P32245). Kind of series: saturation and competition binding.
Series [5] concerns the target LRP2 (megalin) (Homo sapiens) (UniProt P98164). Kind of series: SPR.
Series [6] deals with NGALR 1-105 (Homo sapiens) (UniProt Q8WUG5).
Sequence of UniProt Q8WUG5 (Q8WUG5 1-105): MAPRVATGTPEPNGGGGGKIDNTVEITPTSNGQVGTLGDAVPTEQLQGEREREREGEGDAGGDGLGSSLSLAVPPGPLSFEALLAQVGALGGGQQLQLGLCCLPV
In series [7] the target is megalin (Homo sapiens) (UniProt P98164).

Sequence of UniProt Q01726 (Q01726 whole entry): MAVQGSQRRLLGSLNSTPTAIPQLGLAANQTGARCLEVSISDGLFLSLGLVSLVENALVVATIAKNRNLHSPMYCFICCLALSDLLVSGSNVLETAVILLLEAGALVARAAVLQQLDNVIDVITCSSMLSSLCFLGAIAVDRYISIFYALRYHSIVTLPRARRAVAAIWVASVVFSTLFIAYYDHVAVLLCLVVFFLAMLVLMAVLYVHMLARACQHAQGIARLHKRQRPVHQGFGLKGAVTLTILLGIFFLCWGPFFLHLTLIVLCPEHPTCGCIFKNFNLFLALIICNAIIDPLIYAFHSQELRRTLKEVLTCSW
Sequence of UniProt Q9D9E0 (Q9D9E0 whole entry): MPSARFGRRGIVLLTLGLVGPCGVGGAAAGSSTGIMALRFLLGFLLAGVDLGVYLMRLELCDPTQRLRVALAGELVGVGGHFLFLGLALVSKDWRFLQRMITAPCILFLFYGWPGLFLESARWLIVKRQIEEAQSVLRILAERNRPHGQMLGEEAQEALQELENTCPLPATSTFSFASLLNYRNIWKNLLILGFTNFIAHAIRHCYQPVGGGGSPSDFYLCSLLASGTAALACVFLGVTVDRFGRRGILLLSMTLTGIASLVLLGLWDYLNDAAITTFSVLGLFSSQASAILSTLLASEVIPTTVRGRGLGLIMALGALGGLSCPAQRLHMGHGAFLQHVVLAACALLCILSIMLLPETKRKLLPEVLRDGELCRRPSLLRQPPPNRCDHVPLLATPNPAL
Sequence of UniProt P41968 (P41968 whole entry): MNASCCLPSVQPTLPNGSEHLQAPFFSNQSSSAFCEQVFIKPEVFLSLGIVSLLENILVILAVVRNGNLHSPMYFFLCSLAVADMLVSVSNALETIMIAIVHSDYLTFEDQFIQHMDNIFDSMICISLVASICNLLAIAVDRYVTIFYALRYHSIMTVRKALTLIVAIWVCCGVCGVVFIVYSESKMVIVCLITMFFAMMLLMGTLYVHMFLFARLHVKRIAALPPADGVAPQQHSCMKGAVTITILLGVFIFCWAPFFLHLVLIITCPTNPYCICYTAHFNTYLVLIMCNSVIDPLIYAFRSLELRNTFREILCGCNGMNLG
Sequence of UniProt P32245 (P32245 whole entry): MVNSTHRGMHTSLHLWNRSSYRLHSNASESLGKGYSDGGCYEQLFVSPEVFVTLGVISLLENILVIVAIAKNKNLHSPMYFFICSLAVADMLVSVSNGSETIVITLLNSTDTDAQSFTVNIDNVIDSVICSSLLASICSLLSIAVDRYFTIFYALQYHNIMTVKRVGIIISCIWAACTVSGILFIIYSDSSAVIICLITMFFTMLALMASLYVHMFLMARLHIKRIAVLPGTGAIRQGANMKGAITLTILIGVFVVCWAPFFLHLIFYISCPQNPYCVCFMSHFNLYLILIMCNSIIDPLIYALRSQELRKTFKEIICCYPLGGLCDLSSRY

For the substance LCN2 (24p3) (from UniProt P11672), the Kd in series [1] was 0.092 nM.

Regarding LCN2 (from UniProt P11672), the Kd was 82.1 nM in series [2], 87 nM in series [3] and 51.4 nM in series [4].

For LCN2 (from UniProt P80188), the Kd in series [5] was 60 nM.

As to “LCN2 with ferric-enterobactin (from UniProt P80188)”, the Kd in series [6] was 20000 nM.

With α1M (from UniProt P02760), the Kd in series [7] is 420 nM.
